The source of these data is paper PMC11286415.

Data set [1] deals with WT MCP3 (Trypanosoma brucei). Kind of data set: ITC. The conditions noted are these: 1 mM Mg2+; unmodified in vitro transcript; ITC: 20 mM MOPS pH 7.8, 100 mM NaCl, 2 mM DTE, 1 mM MgCl2, 25 C, 30 uM protein in cell, 300 uM tRNA in syringe; SEC-MALS: preincubation 27 C, run at 4 C …. On the technique in general: In gel filtration, larger molecules generally elute earlier.
Data set [2] relates to ΔN MCP3 (Trypanosoma brucei). Description: ITC. The conditions noted are these: unmodified in vitro transcript; ITC: 20 mM MOPS pH 7.8, 100 mM NaCl, 2 mM DTE, 1 mM MgCl2, 25 C, 30 uM protein in cell, 300 uM tRNA in syringe; SEC-MALS: preincubation 27 C, run at 4 C ….
Data set [3] addresses Trypanosoma brucei multi-aminoacyl-tRNA synthetase complex (MSC)-associated protein 3 (MCP3), wild type (Trypanosoma brucei). Description: ITC; dimer to monomers: 250 uM WT MCP3 in the syringe injected into buffer in the cell (50 mM glycylglycine pH 8.0, 300 mM NaCl, 2 mM DTE); 13 injections of 1 uL, 25°C.
The target is the same in data set [4]. Description: SEC-MALS; 300 ug protein at 3 mg/mL in 100 uL; 30 mM Tris-HCl pH 8.0, 100 mM NaCl, 5 mM MgCl2, 2 mM DTT; incubated at 27°C for 1 h; Superdex 200 Increase 10/300 GL, 0.5 mL/min; no tRNA.

The term Kd denotes the concentration at which binding is half-saturated. A low value points to higher affinity. In the case of tRNAPro, the Kd stood at 1.05 µM in data set [1] and 0.809 µM in data set [2].

Regarding tRNAAla, the Kd in data set [1] is 1.12 µM.

As a reminder, the stoichiometry N is the number of molecules, sites or subunits per partner or assembly. Take “Trypanosoma brucei multi-aminoacyl-tRNA synthetase complex (MSC)-associated protein 3 (MCP3), wild type (enzyme)”: the dissociation constant (Kd) in data set [3] came out at 2.6 µM. The substance further had a stoichiometry N in data set [4] of 2.
